Assay results taken from patent publication US20240043527A1 (BioNTech SE, priority 2020, published 2024).

Assays:
[1] = tested on: CLDN-18.2+ NUG-C4 transfectants; experiment: In vitro ADCC assay (luciferase-based); format: cell-based, human; settings: for ADCC, cellular cytotoxicity: control cells MDA-MB-231, human PBMCs, E:T 30:1
Method: (§1) RiboMab01-containing cell culture supernatant from CHO-K1 cells lipofected with RB_RMAB01 was subjected to (Panel A) ADCC and (Panel B) CDC assays. […] Human PBMCs of three different healthy donors were utilized as effector cells (E:T ratio 30:1). Target or control and effector cells were incubated for 48 hours with the indicated RiboMab01 and IMAB362 reference protein concentrations. Specific cell lysis as determined in a luciferase-based assay is shown. […] Target and control cells were incubated with human serum and RiboMab01 concentrations as indicated for 2 hours. CDC determined in a luciferase-based assay is shown. Error bars are standard errors of the mean (n=3).
(§2) Mode of action analysis: Antibody-dependent cellular cytotoxicity (ADCC) and complement-dependent cytotoxicity (CDC) in vitro. […] To simulate in vivo conditions, human PBMCs from three different healthy donors were used as effector cells in ADCC assays in an effector to target (E:T) ratio of 30:1 and human serum (e.g., commercially available human serum) was used as a source of complement in CDC assays.

[2] = tested on: CLDN-18.2+ CHO-K1 transfectants; experiment: In vitro CDC assay (luciferase-based); format: cell-based; settings: human serum, 2 hours, control CLDN-18.2-negative CHO-K1
Method: as §1, §2

MDA-MB-231 cells [3] = experiment: Ex vivo ADCC assay with plasma of dosed mice, target-negative control cells; format: cell-based, human; settings: mouse plasma
Method: Plasma of mice dosed with five repetitive injections of either 1 μg (˜0.04 mg/kg), 3 μg (˜0.10 mg/kg), 10 μg (˜0.40 mg/kg) and 30 μg (˜1.20 mg/kg) RB_RMAB01 or 80 μg (˜3.20 mg/kg) of IMAB362 was sampled 24 hours post 5th injection and directed to luciferase-based ex vivo ADCC assays. Plasma of untreated mice spiked with IMAB362 served as assay reference. […] (Panel A) RiboMab01 mediated ADCC of NUG-C4 cells after 48 hours incubation with 1% of plasma is shown. […] Error bars are standard errors of the mean (n=3).
Plasma of untreated mice spiked with IMAB362 served as assay reference.

MDA-MB-231 cells [4] = experiment: Ex vivo ADCC assay with serum of dosed non-human primates, target-negative control cells; format: cell-based
Method: Non-Human Primates (NHP) received three repetitive doses of 0.1, 0.4 or 1.6 mg/kg RB_RMAB01 once weekly. RiboMab01-containing serum of all monkeys sampled 24 hours (black bars) and 168 hours (white bars) post 1st injection was directed to luciferase-based ex vivo ADCC assays. […] Human PBMCs from two different healthy donors (24 h, donor 1, 168 h, donor 2) served as effector cells. (Panel A) RiboMab01-mediated ADCC of NUG-C4 cells after 48 hours incubation is shown. (Panel B) Unspecific lysis on target-negative MDA-MB-231 cells is shown. Error bars are standard error of the mean (n=3). (Panel C) Serum of NHP No. 14 (1.6 mg/kg RB_RMAB01, RiboMab01 serum concentration 232 μg/mL) collected 48 hours after the 3rd dosing was used for a luciferase-based ex vivo ADCC assays. […] Human PBMCs of a healthy donor served as effector cells. […] Incubation time was 48 hours. Error bars are standard errors of the mean (n=3).
ADCC assays were performed as described in Example 2. […] Purified IMAB362 served as assay reference protein.

[5] = tested on: CLDN-18.2+ NCI-N87 xenograft tumors; experiment: CLDN-18.2+ human gastric carcinoma xenograft tumor model; format: in vivo, mice; settings: IV injections of 1-30 μg RB_RMAB01 on test days 15, 22, 29, 36, 43 and 50
Method: Median tumor growth of treatment and control groups is shown. Dotted lines indicate injections. Significance was calculated by Two-way ANOVA. Ns indicates not significant.

[6] = Single dose PK study in rats (ELISA); format: in vivo, RjHan:Wister rats; settings: single IV dose, post administration
Method: RjHan:Wister rats received a single IV injection of 0.04, 0.10, 0.40 or 1.20 mg/kg of RB_RMAB01 and 3.60 mg/kg of IMAB362 reference protein. Plasma was sampled 2, 6, 8, 10, 22, 24, 27, 30, 48, 72, 96, 168, 216, 264 and 336 hours post administration. RiboMab01 concentrations in plasma measured via ELISA are shown. Error bars are standard errors of the mean (n=3).

[7] = Repetitive dose PK study in NHP (ELISA); format: in vivo, Cynomolgus monkey
Method: NHP received IV injections of 0.1, 0.4 or 1.6 mg/kg RB_RMAB01 at test days 1, 8 and […] was sampled 6, 24, 48, 72, 96 and 168 hours post 1st and 3rd dosing and 48, 72 and 168 hours post 2nd dosing as well as 264, 336 and 504 hours post 3rd dosing. RiboMab01 concentrations in plasma measured via ELISA are shown. Error bars are standard errors of the mean (n=3).
FIG. 14 is a graph showing dose-exposure correlation of RB_RMAB01 in cynomolgus monkey at tmax. Cynomolgus monkeys (n=3) received IV injections of 0.1, 0.4 or 1.6 mg/kg RB_RMAB01. Dose-dependent RiboMab01 concentrations (mean, n=3) in plasma measured via ELISA at Cmax are depicted. A green line indicates a dose that can be administered to a human subject and its corresponding anticipated serum concentration.
Treatment groups received three IV bolus injections of either 0.1 mg/kg, 0.4 mg/kg or 1.6 mg/kg at weekly intervals. As controls, saline or empty LNPs were administered likewise. Serum was sampled 6, 24, 48, 72, 96 and 168 hours post 1st and 3rd dosing and 48, 72 and 168 hours post 2nd dosing as well as 264, 336 and 504 hours post 3rd dosing.

[8] = cynomolgus monkey, in vivo
Method: Furthermore, immunotoxicity in vivo was assessed as part of the repeated-dose toxicity study in mice and a pharmacokinetic study in cynomolgus monkey. All studies were designed in accordance with the ICH S8 guideline (Immunotoxicity studies for human pharmaceuticals).

ADCC EC50 ([1]; human PBMCs from three donors, E:T 30:1, 48 hours): 0.01 to 0.127 µg/mL
Substance: CLDN-18.2-targeting RiboMab: CLDN-18.2-targeting IgG antibody (IMAB362 delivered as ribonucleic acid) expressed from mRNAs encoding heavy and light chain
ADCC, cellular cytotoxicity [1]: target specific and dose-dependent cellular cytotoxicity comparable to the reference protein IMAB362
ADCC, cellular cytotoxicity ([1]; listed as RiboMab01): high target specific cell cytotoxicity
CDC, cellular cytotoxicity [2]: target specific and dose-dependent cellular cytotoxicity comparable to the reference protein IMAB362
CDC, cellular cytotoxicity ([2]; listed as RiboMab01): high target specific cell cytotoxicity
unspecific lysis on target-negative cells (MDA-MB-231 cells [3]): No unspecific lysis
unspecific lysis on control cells (MDA-MB-231 cells [4]; FIG. 5 Panel C dilution row): weak unspecific lysis
unspecific lysis on target-negative cells (MDA-MB-231 cells [4]; NHP serum 24 h and 168 h post dosing): Low effector, donor-dependent unspecific lysis
tumor growth inhibition in vivo (FIG. 6) [5]: tumor growth inhibition
time of peak concentration [6]: 24 h
RiboMab serum concentration, highest determined ([7]; NHP No. 14, 1.6 mg/kg, 48 hours after the 3rd dosing): 232 µg/mL
Cmax compared with IMAB362 ([7]; between 48-72 hours post administration): notably lower Cmax than IMAB362
tmax ([7]; dose-exposure correlation in cynomolgus monkey, FIG. 14): 48 h
peak serum concentration of RiboMab ([7]; highest dose 1.6 mg/kg, 48-72 hours post 3rd administration): 231.7 µg/mL
time RiboMab detectable (termination of the study) ([7]; post 1st dosing): 840 h
expression on weekly administration ([7]; three weekly IV doses): sustainable
systemic side effects [8]: no systemic side effects such as diarrhea were observed
